Columns and labels:
Test in all cases: cell-based or functional assay
[1] = target: LCAR-B38M CAR (on LCAR-B38M CAR-T drug product cells)
[2] = target: BCMA on multiple myeloma target cells (KILR MM-1R; RPMI8226_Luc) (UniProt Q02223)
[3] = target: KLK2 CAR (on KLK2 CAR-T cells)

Question: Which % CAR-T Killing of KILR MM-1R cells, baseline = CAR-T cells blocked with 50 ug/mL sBCMA lot C108P1-86BF2-NX [1] does the source give for “Soluble Human BCMA Protein (sBCMA) (from UniProt Q02223 1-54) (receptor)” here?
Answer: 42%

Question: And the % CAR-T Killing of KILR MM-1R cells, baseline = CAR-T cells blocked with 100 ug/mL sBCMA lot C108P1-86BF2-NX [1]?
Answer: 59%

Question: What about the % CAR-T Killing of KILR MM-1R cells, baseline = CAR-T cells blocked with 150 ug/mL sBCMA lot C108P1-86BF2-NX [1] of the same substance?
Answer: 68%

Question: And the % CAR-T Killing of KILR MM-1R cells, baseline = CAR-T cells blocked with 200 ug/mL sBCMA lot C108P1-86BF2-NX [1]?
Answer: 74%

Question: What about the % CAR-T Killing of KILR MM-1R cells, baseline = CAR-T cells blocked with 250 ug/mL sBCMA lot C108P1-86BF2-NX [1] of the same substance?
Answer: 79%

Question: And the % CAR-T Killing of KILR MM-1R cells, baseline = CAR-T cells blocked with 300 ug/mL sBCMA lot C108P1-86BF2-NX [1]?
Answer: 79%

Question: And the % CAR-T Killing of KILR MM-1R cells, baseline = CAR-T cells blocked with 400 ug/mL sBCMA lot C108P1-86BF2-NX [1]?
Answer: 62%

Question: What about the % CAR-T Killing, Blocking method, sample PQ-0330 Donor B MOI = 1.5 on K562 Luc (non-B cell) target cells [1] of the same substance?
Answer: -46%

Question: What about the % CAR-T Killing, Blocking method, sample PQ-0330 Donor B MOI = 1.5 on RPMI8226 luc target cells [1] of the same substance?
Answer: 28%

Question: What about the % CAR-T Killing, Blocking method, sample SH19-28 on K562 Luc (non-B cell) target cells [1] of the same substance?
Answer: -41%

Question: And the % CAR-T Killing, Blocking method, sample SH19-28 on RPMI8226 Luc target cells [1]?
Answer: 29%

Question: And the % Control T Cell Killing (blocked baseline), Blocking method, sample PQ-0330 Donor B MOI = 1.5 on RPMI8226 luc target cells [1]?
Answer: 67%

Question: And the % Control T Cell Killing (blocked baseline), Blocking method, sample SH19-28 on K562 Luc (non-B cell) target cells [1]?
Answer: 39%

Question: And the % Control T Cell Killing (blocked baseline), Blocking method, sample SH19-28 on RPMI8226 Luc target cells [1]?
Answer: 53%

Question: What does the source list for “LCAR-B38M CAR (on LCAR-B38M CAR-T drug product cells) (receptor)”?
Answer: % Total Killing, sample PQ-0330 Donor B MOI = 1.5 on RPMI8226 luc target cells [2]: 77%; % Total Killing, sample SH19-28 on RPMI8226 Luc target cells [2]: 67%

Question: Which % CAR-T Killing of KILR LNcaP-KLK2 cells, baseline = SH20-KLK2-004-CAR-T blocked w/ 125 ug/mL KLK2 soluble protein (500 mg/mL) [3] does the source give for “soluble human KLK2 protein (sKLK2) with C-terminal His6 tag (from UniProt P20151 25-261)” here?
Answer: 107%

Question: How did the % CAR-T Killing of KILR LNcaP-KLK2 cells, baseline = SH20-KLK2-004-CAR-T blocked w/ 2.5 ug/mL KLK2 soluble protein (500 mg/mL) [3] turn out when “soluble human KLK2 protein (sKLK2) with C-terminal His6 tag (from UniProt P20151 25-261) (enzyme)” was run?
Answer: 49%

Question: And the % CAR-T Killing of KILR LNcaP-KLK2 cells, baseline = SH20-KLK2-004-CAR-T blocked w/ 12.5 ug/mL KLK2 soluble protein (500 mg/mL) [3]?
Answer: 68%

Question: What about the % CAR-T Killing of KILR LNcaP-KLK2 cells, baseline = SH20-KLK2-004-CAR-T blocked w/ 25 ug/mL KLK2 soluble protein (500 mg/mL) [3] of the same substance?
Answer: 79%

Question: What about the % CAR-T Killing of KILR LNcaP-KLK2 cells, baseline = SH20-KLK2-004-CAR-T blocked w/ 50 ug/mL KLK2 soluble protein (500 mg/mL) [3] of the same substance?
Answer: 96%

Question: What about the % CAR-T Killing of KILR LNcaP-KLK2 cells, baseline = SH20-KLK2-004-CAR-T blocked w/ 75 ug/mL KLK2 soluble protein (500 mg/mL) [3] of the same substance?
Answer: 106%

Question: What about the % CAR-T Killing of KILR LNcaP-KLK2 cells, baseline = SH20-KLK2-004-CAR-T blocked w/ 100 ug/mL KLK2 soluble protein (500 mg/mL) [3] of the same substance?
Answer: 111%

Reference: patent US20220057381A1
